Self-aminoacylation data for 23 sequences are collected here from the supplement of paper PMC9233669.

Data set [1] deals with biotinyl-Val-oxazolone. Put plainly: self-aminoacylation, catalytic enhancement (BVO) (fold over background); higher = more active; k-Seq, kA / k0A0; sequences stand for … in GGGAAUGGAUCCACAUCUACGAAUUC…UUCACUGCAGACUUGACGAAGCUG
The gist of the method: (§1)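 Mutagenized RNA pools (0.43 μM; 21-nt variable region) were treated with 2–1250 μM of each biotinyl-aminoacyl-oxazolone. Conditions were 50 μL HEPES/NaCl/KCl/MgCl2/CaCl2 buffer, 5% acetonitrile, pH 6.9–7.0, room temperature, 90 minutes. Catalytic enhancement, the median kA relative to the uncatalyzed rate, was derived from streptavidin capture, qPCR and Illumina sequencing.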

Data set [2] deals with biotinyl-Leu-oxazolone. Put plainly: self-aminoacylation, catalytic enhancement (BLO) (fold over background); higher = more active; k-Seq, kA / k0A0; sequences stand for … in GGGAAUGGAUCCACAUCUACGAAUUC…UUCACUGCAGACUUGACGAAGCUG
An outline of the steps:
as §1

The subject of data set [3] is biotinyl-Trp-oxazolone. As to the kind of experiment: self-aminoacylation, catalytic enhancement (BWO) (fold over background); higher = more active; k-Seq, kA / k0A0; sequences stand for … in GGGAAUGGAUCCACAUCUACGAAUUC…UUCACUGCAGACUUGACGAAGCUG
The gist of the method:
as §1

Data set [4] relates to biotinyl-Ile-oxazolone. As to the kind of experiment: self-aminoacylation, catalytic enhancement (BIO) (fold over background); higher = more active; k-Seq, kA / k0A0; sequences stand for … in GGGAAUGGAUCCACAUCUACGAAUUC…UUCACUGCAGACUUGACGAAGCUG
The gist of the method: as §1

Data set [5] relates to biotinyl-Phe-oxazolone. Put plainly: self-aminoacylation, catalytic enhancement (BFO) (fold over background); higher = more active; k-Seq, kA / k0A0; sequences stand for … in GGGAAUGGAUCCACAUCUACGAAUUC…UUCACUGCAGACUUGACGAAGCUG
An outline of the steps: as §1

The test system of data set [6] is biotinyl-Met-oxazolone. Put plainly: self-aminoacylation, catalytic enhancement (BMO) (fold over background); higher = more active; k-Seq, kA / k0A0; sequences stand for … in GGGAAUGGAUCCACAUCUACGAAUUC…UUCACUGCAGACUUGACGAAGCUG
The gist of the method: as §1

Variants at the floor of the assay were thinned out.

Turning to “CCACACUUAAUGCAAUCGGUC [Fam1B.1 aminoacylation ribozyme variant]”, the self-aminoacylation in data set [1] is 0.763; in data set [2], 0.693; in data set [3], 0.642; in data set [4], 0.855; in data set [5], 0.949; in data set [6], 0.752.

In the case of “AUUACCCUGGUCAUAGAGUGG [Fam2.1 aminoacylation ribozyme variant]”, the self-aminoacylation in data set [1] was found to be 1.43; in data set [2] it was 2.31; in data set [3], 1.18; in data set [4], 1.37; in data set [5] it was 3.37; in data set [6] it was 2.18.

On to “AUUCACCUAGGUCAUCCAGUG [Fam2.2 aminoacylation ribozyme variant]”, for which the self-aminoacylation in data set [1] amounted to 4.21; in data set [2], 9.68; in data set [3], 6.96; in data set [4], 5.19; in data set [5], 52; in data set [6] it was 7.78.

Regarding “AAGUUUGCUAAUAGUAGCCAG [Fam3.1 aminoacylation ribozyme variant]”, the self-aminoacylation in data set [1] is 0.769; in data set [2], 0.78; in data set [3] it was 2.24; in data set [4], 0.868; in data set [5], 1.04; in data set [6] it was 0.77.

As to “AUUAACCUGGACAUCGAGUGA [Fam2.1 aminoacylation ribozyme variant]”, the self-aminoacylation in data set [1] stood at 2.89; in data set [2], 6.88; in data set [3], 8.58; in data set [4], 2.99; in data set [5], 32.9; in data set [6] it was 6.63.

As for “AUUACCGUCGUCAUCGAGUGA [Fam2.1 aminoacylation ribozyme variant]”, the self-aminoacylation is 2.3 in data set [1]; 3.42 in data set [2]; 3.88 in data set [3]; 2.36 in data set [4]; 8.91 in data set [5]; 3.23 in data set [6].

Consider “AAGUAUGCUAAUAGUCGAAAG [Fam3.1 aminoacylation ribozyme variant]”, for which the self-aminoacylation is 1.21 in data set [1]; 1.31 in data set [2]; 4.62 in data set [3]; 1.48 in data set [4]; 15.7 in data set [5]; 1.7 in data set [6].

As for “AUUCAUCUAGGUCAUCGGGAG [Fam2.2 aminoacylation ribozyme variant]”, the self-aminoacylation in data set [1] was determined as 1.16; in data set [2], 0.697; in data set [3], 1.36; in data set [4], 1.11; in data set [5], 0.786; in data set [6], 0.945.

In the case of “AUAACCCUGGUCAUCGAGAGA [Fam2.1 aminoacylation ribozyme variant]”, the self-aminoacylation turned out to be 0.839 in data set [1]; 0.822 in data set [2]; 0.804 in data set [3]; 1.01 in data set [4]; 1.12 in data set [5]; 0.604 in data set [6].

Take “CUUACCCUGUUCAUCGAGUGA [Fam2.1 aminoacylation ribozyme variant]”: the self-aminoacylation in data set [1] came to 2.86; in data set [2], 4.33; in data set [3], 6.94; in data set [4] it was 2.29; in data set [5], 7.83; in data set [6], 4.32.

On to “CCACACGUCUAGCAAUCGGUC [Fam1B.1 aminoacylation ribozyme variant]”, for which the self-aminoacylation amounted to 1.15 in data set [1]; 0.937 in data set [2]; 0.768 in data set [3]; 1.01 in data set [4]; 0.972 in data set [5]; 0.9 in data set [6].

Take “CUACUUAAAACCAUCGGUCUG [Fam1A.1 aminoacylation ribozyme variant]”: the self-aminoacylation in data set [1] is 0.923; in data set [2], 0.846; in data set [3], 1.36; in data set [4], 0.927; in data set [5], 1.22; in data set [6], 1.1.

With “GUUCACCUAGGUCAUUGGGUG [Fam2.2 aminoacylation ribozyme variant]”, the self-aminoacylation in data set [1] was determined as 2.27; in data set [2], 2.83; in data set [3], 3.8; in data set [4] it was 2.6; in data set [5], 8.92; in data set [6], 2.21.

As to “AAUCACCUAGGUAAUCGGGUG [Fam2.2 aminoacylation ribozyme variant]”, the self-aminoacylation in data set [1] amounted to 2.08; in data set [2], 3.17; in data set [3] it was 4.18; in data set [4] it was 2.64; in data set [5] it was 14.1; in data set [6], 2.67.

With “CUUCUUCAAACAAUCCGUCUG [Fam1A.1 aminoacylation ribozyme variant]”, the self-aminoacylation in data set [1] was found to be 0.901; in data set [2], 0.923; in data set [3], 0.964; in data set [4] it was 0.85; in data set [5] it was 1.17; in data set [6], 0.623.

Consider “AUUACCCCGGUCAUCGAGAGA [Fam2.1 aminoacylation ribozyme variant]”, for which the self-aminoacylation in data set [1] came to 0.651; in data set [2], 0.708; in data set [3], 1.07; in data set [4], 0.935; in data set [5], 1.03; in data set [6] it was 0.8.

With “CUACUUCAAACAAUCGAUUUG [Fam1A.1 aminoacylation ribozyme variant]”, the self-aminoacylation was 0.657 in data set [1]; 0.482 in data set [2]; 0.752 in data set [3]; 0.717 in data set [4]; 1.26 in data set [5]; 0.63 in data set [6].

On to “AAGUUUGCUAAUAAUCACAAG [Fam3.1 aminoacylation ribozyme variant]”, for which the self-aminoacylation in data set [1] worked out at 0.832; in data set [2], 1.08; in data set [3], 1.1; in data set [4], 1.08; in data set [5], 1.25; in data set [6] it was 1.05.

In the case of “CUACUUCAAAAAUUCGGUCUG [Fam1A.1 aminoacylation ribozyme variant]”, the self-aminoacylation was determined as 1.45 in data set [1]; 1.65 in data set [2]; 1.12 in data set [3]; 1.44 in data set [4]; 3.5 in data set [5]; 1.37 in data set [6].

With “CCACACUUCAAGCCCUCGGUC [Fam1B.1 aminoacylation ribozyme variant]”, the self-aminoacylation in data set [1] came out at 1.58; in data set [2] it was 1.64; in data set [3], 1.92; in data set [4], 1.4; in data set [5], 5.16; in data set [6], 2.01.

As to “AUAACCCUGGUCUUCGAGUGA [Fam2.1 aminoacylation ribozyme variant]”, the self-aminoacylation came to 2.71 in data set [1]; 5.23 in data set [2]; 6.89 in data set [3]; 2.9 in data set [4]; 17.7 in data set [5]; 5.08 in data set [6].

Regarding “AUUACCCUGCUCAUCGAAUGA [Fam2.1 aminoacylation ribozyme variant]”, the self-aminoacylation amounted to 0.974 in data set [1]; 0.735 in data set [2]; 1.32 in data set [3]; 0.867 in data set [4]; 0.772 in data set [5]; 0.845 in data set [6].

With “AUUCACCUAGGUCAUAGCGUG [Fam2.2 aminoacylation ribozyme variant]”, the self-aminoacylation was found to be 2.15 in data set [1]; 4.63 in data set [2]; 3.55 in data set [3]; 2.46 in data set [4]; 17.1 in data set [5]; 3.36 in data set [6].
